Laboratory results as given in article PMC5672800 (Journal of medicinal chemistry, 2017).
Blank lines part the entries; values can stand above or below the binder they belong to. Non-standard residues stand in square brackets, D forms with d. dPhe(4-I) = N[C@H](Cc1ccc(I)cc1)C(=O)O; d2Nal = N[C@H](Cc1ccc2ccccc2c1)C(=O)O; Bta = N[C@@H](Cc1csc2ccccc12)C(=O)O; Tic = O=C(O)[C@@H]1Cc2ccccc2CN1

What was measured:
[1] = target: T1, mouse melanocortin-3 receptor (mouse, UniProt P33033 1-323); assay: cell-based or functional assay
T1 sequence (P33033 whole entry): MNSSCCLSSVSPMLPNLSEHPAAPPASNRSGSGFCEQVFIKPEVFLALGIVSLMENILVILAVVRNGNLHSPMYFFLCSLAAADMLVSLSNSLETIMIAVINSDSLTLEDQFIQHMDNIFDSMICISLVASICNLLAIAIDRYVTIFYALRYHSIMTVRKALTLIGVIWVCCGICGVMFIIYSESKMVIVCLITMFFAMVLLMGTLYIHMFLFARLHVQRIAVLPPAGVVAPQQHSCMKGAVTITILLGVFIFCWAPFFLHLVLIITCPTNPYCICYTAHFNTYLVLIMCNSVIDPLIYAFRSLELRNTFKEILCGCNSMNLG

[2] = target: T2, mouse melanocortin-4 receptor (mouse, UniProt P56450 1-332); assay: cell-based or functional assay
T2 sequence (P56450 whole entry): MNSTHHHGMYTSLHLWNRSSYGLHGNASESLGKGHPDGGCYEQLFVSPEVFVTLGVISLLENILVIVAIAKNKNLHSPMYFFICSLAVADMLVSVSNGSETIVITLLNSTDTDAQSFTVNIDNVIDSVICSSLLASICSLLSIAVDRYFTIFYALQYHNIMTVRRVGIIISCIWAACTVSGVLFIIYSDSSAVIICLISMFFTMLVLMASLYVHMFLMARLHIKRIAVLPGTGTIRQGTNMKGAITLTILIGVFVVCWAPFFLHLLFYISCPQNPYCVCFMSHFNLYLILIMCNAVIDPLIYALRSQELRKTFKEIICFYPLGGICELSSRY

[3] = target: mouse melanocortin-1 receptor (mouse, UniProt Q01727 1-315); assay: cell-based or functional assay
Chain of mouse melanocortin-1 receptor (Q01727 whole entry): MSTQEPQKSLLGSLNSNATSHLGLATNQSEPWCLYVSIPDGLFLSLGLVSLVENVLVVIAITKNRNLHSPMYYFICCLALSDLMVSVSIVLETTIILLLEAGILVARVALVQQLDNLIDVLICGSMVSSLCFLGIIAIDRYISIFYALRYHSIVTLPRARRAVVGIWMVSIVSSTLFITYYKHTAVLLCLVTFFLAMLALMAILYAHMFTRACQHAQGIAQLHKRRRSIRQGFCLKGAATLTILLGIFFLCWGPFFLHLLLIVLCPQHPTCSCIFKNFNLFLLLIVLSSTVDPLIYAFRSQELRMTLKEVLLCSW

[4] = target: mouse melanocortin-5 receptor (mouse, UniProt P41149 1-325); assay: cell-based or functional assay
Chain of mouse melanocortin-5 receptor (P41149 whole entry): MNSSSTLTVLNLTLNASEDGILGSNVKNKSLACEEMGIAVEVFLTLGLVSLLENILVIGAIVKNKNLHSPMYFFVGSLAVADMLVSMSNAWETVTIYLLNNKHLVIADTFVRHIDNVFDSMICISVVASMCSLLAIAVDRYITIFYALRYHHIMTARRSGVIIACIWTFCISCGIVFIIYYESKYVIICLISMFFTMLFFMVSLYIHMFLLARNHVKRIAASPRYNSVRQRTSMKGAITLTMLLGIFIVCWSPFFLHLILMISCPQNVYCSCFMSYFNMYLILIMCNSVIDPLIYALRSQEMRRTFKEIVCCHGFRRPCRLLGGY

[5] = target: T1, mouse melanocortin-3 receptor; assay: radioligand binding
[6] = target: T2, mouse melanocortin-4 receptor; assay: radioligand binding

- cAMP AlphaScreen, HEK293 cells stably expressing the receptor: agonist EC50 [1]: 57 nM
- cAMP AlphaScreen, HEK293 cells stably expressing the receptor: agonist EC50 [2]: > 100000 nM
- cAMP AlphaScreen, Schild analysis against NDP-MSH (blocks m5+m3): antagonist pA2 [2]: 6.4 -Log(Ki)
- cAMP AlphaScreen, HEK293 cells stably expressing the receptor: agonist EC50 [3]: 280 nM
- cAMP AlphaScreen, HEK293 cells stably expressing the receptor: agonist EC50 [4]: 500 nM
- IC50 [5]: 440 nM
- IC50 [6]: 220 nM
Binder: Ac-RR[dPhe(4-I)][d2Nal]-NH2 [Ac-Arg-Arg-(pI)DPhe-DNal(2′)-NH2]

- cAMP AlphaScreen, HEK293 cells stably expressing the receptor: agonist EC50 [1]: 460 nM
- cAMP AlphaScreen, Schild analysis against NDP-MSH (blocks m5+m3): antagonist pA2 [2]: 6.4 -Log(Ki)
- cAMP AlphaScreen, HEK293 cells stably expressing the receptor: agonist EC50 [3]: 70 nM
- cAMP AlphaScreen, HEK293 cells stably expressing the receptor: agonist EC50 [4]: 270 nM
- IC50 [6]: 275 nM
Binder: Ac-HR[dPhe(4-I)][Bta]-NH2 [compound 11]

- cAMP AlphaScreen, HEK293 cells stably expressing the receptor: agonist EC50 [3]: 55 nM
- cAMP AlphaScreen, HEK293 cells stably expressing the receptor: agonist EC50 [4]: 340 nM
B1: compound 25 (peptide)
peptide: RRFF
HELM: PEPTIDE1{[ac].R.R.[O=C([C@@H](Cc1ccc(I)cc1)N[*:1])[*:2]].F.[am]}$$$$V2.0
SMILES: CC(=O)N[C@@H](CCCNC(=N)N)C(=O)N[C@@H](CCCNC(=N)N)C(=O)N[C@H](Cc1ccc(I)cc1)C(=O)N[C@@H](Cc1ccccc1)C(N)=O

- cAMP AlphaScreen, HEK293 cells stably expressing the receptor: agonist EC50 [1]: 610 nM
- cAMP AlphaScreen, HEK293 cells stably expressing the receptor: agonist EC50 [2]: > 100000 nM
- cAMP AlphaScreen, Schild analysis against NDP-MSH (blocks m5+m3): antagonist pA2 [2]: 6.3 -Log(Ki)
- cAMP AlphaScreen, HEK293 cells stably expressing the receptor: agonist EC50 [3]: 8 nM
- cAMP AlphaScreen, HEK293 cells stably expressing the receptor: agonist EC50 [4]: 200 nM
- IC50 [5]: 2500 nM
- IC50 [6]: 135 nM
Binder: Ac-FR[dPhe(4-I)][Tic]-NH2 [compound 22]

- cAMP AlphaScreen, HEK293 cells stably expressing the receptor: agonist EC50 [1]: 600 nM
- cAMP AlphaScreen, Schild analysis against NDP-MSH (blocks m5+m3): antagonist pA2 [2]: 6.4 -Log(Ki)
- cAMP AlphaScreen, HEK293 cells stably expressing the receptor: agonist EC50 [3]: 7 nM
- cAMP AlphaScreen, HEK293 cells stably expressing the receptor: agonist EC50 [4]: 250 nM
- IC50 [6]: 43 nM
Binder: Ac-[d2Nal]R[dPhe(4-I)][Tic]-NH2 [compound 24]

- cAMP AlphaScreen, HEK293 cells stably expressing the receptor: agonist EC50 [1]: 40 nM
- cAMP AlphaScreen, HEK293 cells stably expressing the receptor: agonist EC50 [2]: > 100000 nM
- cAMP AlphaScreen, Schild analysis against NDP-MSH (blocks m5+m3): antagonist pA2 [2]: 7 -Log(Ki)
- cAMP AlphaScreen, HEK293 cells stably expressing the receptor: agonist EC50 [3]: 0.71 nM
- cAMP AlphaScreen, HEK293 cells stably expressing the receptor: agonist EC50 [4]: 17 nM
- IC50 [6]: 83 nM
B2: Ac-His-Arg-(pI)DPhe-Tic-NH2 (peptide)
chain: HRFX
HELM: PEPTIDE1{[ac].H.R.[O=C([C@@H](Cc1ccc(I)cc1)N[*:1])[*:2]].[Tic].[am]}$$$$V2.0
SMILES: CC(=O)N[C@@H](Cc1c[nH]cn1)C(=O)N[C@@H](CCCNC(=N)N)C(=O)N[C@H](Cc1ccc(I)cc1)C(=O)N1Cc2ccccc2C[C@H]1C(N)=O

- cAMP AlphaScreen, HEK293 cells stably expressing the receptor: agonist EC50 [2]: > 100000 nM
- cAMP AlphaScreen, Schild analysis against NDP-MSH (blocks m5+m3): antagonist pA2 [2]: 7.8 -Log(Ki)
- cAMP AlphaScreen, HEK293 cells stably expressing the receptor: agonist EC50 [3]: 0.51 nM
- cAMP AlphaScreen, HEK293 cells stably expressing the receptor: agonist EC50 [4]: 8.8 nM
- IC50 [6]: 13 nM
B3: Ac-Arg-Arg-(pI)DPhe-Tic-NH2 (peptide)
chain: RRFX
HELM: PEPTIDE1{[ac].R.R.[O=C([C@@H](Cc1ccc(I)cc1)N[*:1])[*:2]].[Tic].[am]}$$$$V2.0
SMILES: CC(=O)N[C@@H](CCCNC(=N)N)C(=O)N[C@@H](CCCNC(=N)N)C(=O)N[C@H](Cc1ccc(I)cc1)C(=O)N1Cc2ccccc2C[C@H]1C(N)=O

- cAMP AlphaScreen, HEK293 cells stably expressing the receptor: agonist EC50 [4]: 3 nM
Binder: Ac-H[dF]RW-NH2 [Ac-His-DPhe-Arg-Trp-NH2]

- cAMP AlphaScreen, HEK293 cells stably expressing the receptor: agonist EC50 [1]: 160 nM
- cAMP AlphaScreen, Schild analysis against NDP-MSH (blocks m5+m3): antagonist pA2 [2]: 6.6 -Log(Ki)
- cAMP AlphaScreen, HEK293 cells stably expressing the receptor: agonist EC50 [3]: 56 nM
- cAMP AlphaScreen, HEK293 cells stably expressing the receptor: agonist EC50 [4]: 210 nM
- IC50 [6]: 93 nM
Binder: Ac-RR[dPhe(4-I)][Bta]-NH2 [compound 10]

- cAMP AlphaScreen, HEK293 cells stably expressing the receptor: agonist EC50 [1]: 930 nM
- cAMP AlphaScreen, HEK293 cells stably expressing the receptor: agonist EC50 [2]: > 100000 nM
- cAMP AlphaScreen, Schild analysis against NDP-MSH (blocks m5+m3): antagonist pA2 [2]: 5.7 -Log(Ki)
- cAMP AlphaScreen, HEK293 cells stably expressing the receptor: agonist EC50 [3]: 330 nM
- cAMP AlphaScreen, HEK293 cells stably expressing the receptor: agonist EC50 [4]: 1300 nM
- IC50 [6]: 850 nM
Binder: Ac-FR[dPhe(4-I)][Bta]-NH2 [compound 15]
